Experimental data as given in PMC4919432.

Tests used:
[1] = molecular target: Mec1·Ddc2 complex (yeast (budding yeast)) (UniProt P38111); test: SEC; Mec1·Ddc2 on Superose 6 HR 10/30, 0.3 ml/min; 50 mM HEPES-KOH pH 7.4, 200 mM KCl, 10% glycerol, 0.1% Tween 20, 0.01% Nonidet P-40, 1 mM EDTA, 1 mM EGTA, 2 mM DTT; size against Bio-Rad gel filtration standards; peak fractions on SDS-PAGE
[2] = molecular target: Mec1·Ddc2 complex (yeast (budding yeast)) (UniProt P38111); test: negative stain electron microscopy, single-particle reconstruction; 70 nM Mec1·Ddc2 in 30 mM HEPES pH 7.4, 200 mM NaCl, 5% glycerol, 0.5 mM EDTA, 1 mM DTT; 2% uranyl acetate; C2 symmetry applied; 22.5 Å
[3] = molecular target: Tel1 (yeast (budding yeast)) (UniProt P38110); test: negative stain electron microscopy, single-particle reconstruction; 20 nM Tel1 in 50 mM HEPES pH 7.4, 150 mM NaCl, 5% glycerol, 1 mM EDTA, 1 mM DTT; 2% uranyl acetate; C2 symmetry applied; 21 Å (FSC 0.5)
[4] = molecular target: Tel1 (yeast (budding yeast)) (UniProt P38110); test: cryo-EM structure; 20 nM Tel1 in 50 mM HEPES-KOH pH 7.4, 210 mM KCl, 1% glycerol, 0.02% Tween 20, 0.002% Nonidet P-40, 1 mM EDTA, 0.5 mM EGTA, 1 mM DTT, 0.5 mM MgCl2; holey carbon grids with a thin carbon layer; 19.2 Å
[5] = molecular target: Tel1 (yeast (budding yeast)) (UniProt P38110); test: SEC; Tel1 on Superose 6 Increase 5/150 GL, 0.1 ml/min; 50 mM HEPES-KOH pH 7.4, 200 mM KCl, 10% glycerol, 0.1% Tween 20, 0.02% C12E10, 1 mM EDTA, 3 mM DTT; size against Bio-Rad gel filtration standards

| Substance | stoichiometry N [1] | percent of particles of the size of the dimer [2] | stoichiometry N [2] | stoichiometry N [3] | stoichiometry N [4] | stoichiometry N [5] |
| --- | --- | --- | --- | --- | --- | --- |
| Mec1·Ddc2 complex, P38111 1-2368; Q04377 1-747 | 2 | 81% | 2 | – | – | – |
| Tel1, P38110 1-2787 | – | – | – | 2 | 2 | 2 |
